Consider 14 sequences from the supplement of paper PMC12764529.

A short description of data set [1]: folding stability dG unfold from chymotrypsin proteolysis; higher = more stable. The method, boiled down: (§1)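 Digests were run with trypsin and chymotrypsin at 11 concentrations in threefold dilutions, plus a no-protease condition, on designed mini-proteins in a PA-tagged cDNA display construct. The mini-proteins were under 80 residues, had no cysteine, and were kept only when AlphaFold2 dimer inter-PAE was above 15. After sequencing, Bayesian fitting of the counts gave K50, from which unfolding free energy was derived against a sequence-predicted unfolded-state K50 and a shared folded-state K50, per protease or combined.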

The nature of data set [2]: folding stability dG unfold (combined trypsin and chymotrypsin); higher = more stable. The method, boiled down:
as §1

A short description of data set [3]: folding stability dG unfold from trypsin proteolysis; higher = more stable. The method, boiled down:
as §1

± gives the half width of the 95% confidence interval.

Take “SAGGPKLFVEEDPVEDGVVVVVETNADPVALLKALEKLFGRPVKDVRFERLPDGRLIAVARIPKDALSAGGS [r16_605_TrMRF]”: the entries for the “folding stability dG unfold” value in data set [1], in data set [2] and in data set [3] were 2.676 ± 0.016 kcal/mol, 2.47 ± 0.045 kcal/mol and 2.05 ± 0.043 kcal/mol, respectively.

With “SAGGPKPILILPKNGKTETIPVPESMTLEEIIEIVKKAAEKYGFEKISYDPEKKVVTVYLKGKVIVTGSAGG [r13_572_TrMRF]”, the “folding stability dG unfold” value turned out to be 2.625 ± 0.017 kcal/mol in data set [1], 2.27 ± 0.064 kcal/mol in data set [2] and 1.25 ± 0.015 kcal/mol in data set [3].

On to “SAGGPKTIMAMIPRDSPELRKALKWLEKAPPGEEVELKLPGKPIRITNIQPVDDWWMFSVKIPPGLKSAGGS [r16_404_TrROS]”, for which the “folding stability dG unfold” value in data set [1] amounted to 0.462 ± 0.31 kcal/mol; in data set [2], 0.885 ± 0.19 kcal/mol; in data set [3], 1.52 ± 0.16 kcal/mol.

On to “SAGGPKVEIVDITVTEEEVNGKKKKTVTVKVKLENGETLTITMSEEELKKLGLSVEEIAKKLAKKLKSAGGS [r16_625_TrROS_Hall]”, for which the “folding stability dG unfold” value in data set [1] turned out to be 2.38 ± 0.044 kcal/mol; in data set [2], 2.09 ± 0.15 kcal/mol; in data set [3] it was 1.54 ± 0.035 kcal/mol.

“SAGGPKVIVTDPNGVKHEFENLSIPELLSSLPKNGTPILKIEIPLFNPELGGEEPLELEFIFPPELFSAGGS [r16_806_TrMRF]”: the “folding stability dG unfold” value in data set [1] was -0.417 ± 0.19 kcal/mol; in data set [2] it was 0.107 ± 0.083 kcal/mol; in data set [3], 0.321 ± 0.017 kcal/mol.

On to “SAGGPKVYLTDIVTTLPDGTVVMIGEIELPDGTPLIAITTIYKDGTVKVFIYDPNGKLIAEIEIKPKPSAGG [r13_903_TrMRF]”, for which the entries for the “folding stability dG unfold” value in data set [1], in data set [2] and in data set [3] were 3.09 ± 0.032 kcal/mol, 2.78 ± 0.064 kcal/mol and 2.15 ± 0.085 kcal/mol, respectively.

For “SAGGPLSEEELEALRKALEAARAAGAETVTLTATLTVTRTVTLPDGSTRTETRTLTLTLTVTLPPEESAGGS [r8_203_TrROS_Hall]”, the “folding stability dG unfold” value in data set [1] turned out to be 4.73 ± 0.079 kcal/mol; in data set [2], 4.45 ± 0.12 kcal/mol; in data set [3], 3.74 ± 0.1 kcal/mol.

Consider “SAGGPLVVEAKVEGDTVTIRLPNGEEFTAHPDATLFLPNGERVFFEPVSDDVVIATVVPLPEDAEFPSAGGS [r16_277_TrMRF]”, for which the “folding stability dG unfold” value in data set [1] was -0.0303 ± 0.13 kcal/mol; in data set [2] it was 0.212 ± 0.085 kcal/mol; in data set [3], 0.359 ± 0.034 kcal/mol.

On to “SAGGPMPPGQKRTVTIDLEYNPENGGYRVRAYSPGGKPIEEFPFPRDNLEEFAEEFANKGVDYVEIEPSAGG [r13_765_TrROS]”, for which the results for the “folding stability dG unfold” value in data set [1], in data set [2] and in data set [3] were 0.528 ± 0.18 kcal/mol, 0.325 ± 0.16 kcal/mol and -0.217 ± 0.19 kcal/mol, respectively.

Turning to “SAGGPNFIVKIRIPMRKYERENDPGGKPKWEPVEPQRVEITIIFKGPPEQAKQIREELENHGLEVEPISAGG [r13_452_TrROS]”, the “folding stability dG unfold” value in data set [1] was 2.44 ± 0.098 kcal/mol; in data set [2] it was 2.05 ± 0.18 kcal/mol; in data set [3], 1.65 ± 0.077 kcal/mol.

In the case of “SAGGPNIELEFETYRDPDGMLVIKFHIRIKFGNKPVYIFVEGVIPPDGEAQIEDAYIFDADNGEWIPISAGG [r13_932_TrROS]”, the “folding stability dG unfold” value in data set [1] stood at 4.6 ± 0.15 kcal/mol; in data set [2] it was 4.26 ± 0.29 kcal/mol; in data set [3], 2.9 ± 0.25 kcal/mol.

Take “SAGGPPNGMVPIKVPIKIRFPNGHEFKIDEAYVMPNGMVMIEMTHTDPDDKKEKFPFMIPPDNLEIVSAGGS [r16_498_TrROS]”: the results for the “folding stability dG unfold” value in data set [1], in data set [2] and in data set [3] were 1.59 ± 0.096 kcal/mol, 1.86 ± 0.19 kcal/mol and 2.41 ± 0.15 kcal/mol, respectively.

With “SAGGPPNYRIKIEYYPPNGMITVELPFDSPDELLDEIRELPGLPVEPDNDGTIIIMFPNHMIKIDIWKSAGG [r13_143_TrROS]”, the results for the “folding stability dG unfold” value in data set [1], in data set [2] and in data set [3] were 2.72 ± 0.056 kcal/mol, 2.51 ± 0.11 kcal/mol and 2.18 ± 0.067 kcal/mol, respectively.

As for “SAGGPPPKWVKIDIFIFIYNPDNGRPIFIRITSIEIRLDENNELDVEIEFEVFDPNGKPVKYTMTFKSAGGS [r16_200_TrROS]”, the figures for the “folding stability dG unfold” value in data set [1], in data set [2] and in data set [3] were 4.8 ± 0.11 kcal/mol, 4.45 ± 0.24 kcal/mol and 3.81 ± 0.12 kcal/mol, respectively.
